{
  "source": "the RNAGym collection of RNA variant scans (doi:10.1093/molbev/msab373)",
  "parents": {"B1": {"name": "Azoarcus group I ribozyme (parent)", "chain": "GUGCCUUGCGCCGGGAAACCACGCAAGGGAUGGUGUCAAAUUCGGCGAAACCUAAGCGCCCGCCCGGGCGUAUGGCAACGCCGAGCCAAGCUUCGGCGCCUGCGCCGAUGAAGGUGUAGAGACUAGACGGCACCCACCUAAGGCAAACGCUAUGGUGAAGGCAUAGUCCAGGGAGUGGCGAAAGUCACACAAACCGG"}},
  "data": [
    {"variants_of": "B1", "assay": "reverse-splicing fitness (ratio to wild type); higher = more active; in vitro selection; Mg2+ level not given", "how_it_was_run": "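An in vitro group I ribozyme library with randomized positions was T7-transcribed and gel-purified. In triplicate, 10 pmol RNA in EPPS pH 7.5 was reacted with 50 pmoles of a 30-nt RNA substrate for 1 h at 37 °C across several added MgCl2 levels (1–48 mM), then stopped with EDTA. Products were reverse transcribed from a substrate-complementary primer, PCR-amplified and sequenced (HiSeq 4000). Fitness is a variant's read proportion after selection over that before, normalised to wild type.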", "values": [
      {"variant": "C82U A111G A120C A145U U176C", "reverse-splicing fitness": 0.0251},
      {"variant": "C82U A111G A120C A145G C169G", "reverse-splicing fitness": 0.00801},
      {"variant": "C82U A111G A120C A145G C169U", "reverse-splicing fitness": 0.0129},
      {"variant": "C82U A111G A120C A145G C169A", "reverse-splicing fitness": 0.00713},
      {"variant": "C82U A111G A120G A145C C150G C169G", "reverse-splicing fitness": 0.00713},
      {"variant": "C82U A111G A120G A145C C150G C169A", "reverse-splicing fitness": 0.00854},
      {"variant": "C82U A111G A120G A145C C150G C169U", "reverse-splicing fitness": 0.00741},
      {"variant": "C82U A111G A120C A145U C150U C169U U176C", "reverse-splicing fitness": 0.0124},
      {"variant": "C82U A111G A120C A145U C150U C169U U176G", "reverse-splicing fitness": 0.00402},
      {"variant": "C82U A111G A120C A145U C150U C169U U176A", "reverse-splicing fitness": 0.0157},
      {"variant": "C82U A111G A120G A145C C150U C169U", "reverse-splicing fitness": 0.00745},
      {"variant": "C82U A111G A120G A145C C150U C169G", "reverse-splicing fitness": 0.00844},
      {"variant": "C82U A111G A120G A145C C150U C169A", "reverse-splicing fitness": 0.0078},
      {"variant": "C82U A111G A120C A145G C150U C169A U176A", "reverse-splicing fitness": 0.0135},
      {"variant": "C82U A111G A120C A145G C150U C169A U176G", "reverse-splicing fitness": 0.00429},
      {"variant": "C82U A111G A120C A145G C150U C169A U176C", "reverse-splicing fitness": 0.0152},
      {"variant": "C82U A111G A120G A145G C150A U176A", "reverse-splicing fitness": 0.0088},
      {"variant": "C82U A111G A120G A145G C150A U176C", "reverse-splicing fitness": 0.0196},
      {"variant": "C82U A111G A120G A145G C150A U176G", "reverse-splicing fitness": 0.00593},
      {"variant": "C82U A111G A120C A145U C150A C169A U176G", "reverse-splicing fitness": 0.00469},
      {"variant": "C82U A111G A120C A145U C150A C169A U176C", "reverse-splicing fitness": 0.00758},
      {"variant": "C82U A111G A120C A145U C150A C169A U176A", "reverse-splicing fitness": 0.0128},
      {"variant": "C82U A111G A120C C150G C169G", "reverse-splicing fitness": 0.00713},
      {"variant": "C82U A111G A120C C150G C169U", "reverse-splicing fitness": 0.00828},
      {"variant": "C82U A111G A120C C150G C169A", "reverse-splicing fitness": 0.0083},
      {"variant": "C82U A111G A120G A145G", "reverse-splicing fitness": 0.0164},
      {"variant": "C82U A111G A120G A145C", "reverse-splicing fitness": 0.0135},
      {"variant": "C82U A111G A120C C150A C169U U176C", "reverse-splicing fitness": 0.0177},
      {"variant": "C82U A111G A120C C150A C169U U176G", "reverse-splicing fitness": 0.00561},
      {"variant": "C82U A111G A120C C150A C169U U176A", "reverse-splicing fitness": 0.017},
      {"variant": "C82U A111G A120C A145G C150G", "reverse-splicing fitness": 0.00985},
      {"variant": "C82U A111G A120C A145G C150A", "reverse-splicing fitness": 0.0129},
      {"variant": "C82U A111G A120C A145G C150U", "reverse-splicing fitness": 0.042},
      {"variant": "C82U A111G A120C A145G C169U U176G", "reverse-splicing fitness": 0.00401},
      {"variant": "C82U A111G A120C A145G C169U U176A", "reverse-splicing fitness": 0.0141},
      {"variant": "C82U A111G A120C A145G C169U U176C", "reverse-splicing fitness": 0.0146},
      {"variant": "C82U A111G A120C C150U C169U", "reverse-splicing fitness": 0.0124},
      {"variant": "C82U A111G A120C C150U C169A", "reverse-splicing fitness": 0.00965},
      {"variant": "C82U A111G A120C C150U C169G", "reverse-splicing fitness": 0.00986},
      {"variant": "C82U A111G A120C A145G C150A C169U", "reverse-splicing fitness": 0.0111},
      {"variant": "C82U A111G A120C A145G C150A C169A", "reverse-splicing fitness": 0.00928},
      {"variant": "C82U A111G A120C A145G C150A C169G", "reverse-splicing fitness": 0.0105},
      {"variant": "C82U A111G A120G A145G C150U C169A U176A", "reverse-splicing fitness": 0.0143},
      {"variant": "C82U A111G A120G A145G C150U C169A U176G", "reverse-splicing fitness": 0.00562},
      {"variant": "C82U A111G A120G A145G C150U C169A U176C", "reverse-splicing fitness": 0.0148},
      {"variant": "C82U A111G A120C A145G C150G C169A", "reverse-splicing fitness": 0.00845},
      {"variant": "C82U A111G A120C A145G C150G C169U", "reverse-splicing fitness": 0.00846},
      {"variant": "C82U A111G A120C A145G C150G C169G", "reverse-splicing fitness": 0.00678},
      {"variant": "C82U A111G A120C A145U C150A C169U U176C", "reverse-splicing fitness": 0.0132},
      {"variant": "C82U A111G A120C A145U C150A C169U U176A", "reverse-splicing fitness": 0.0139},
      {"variant": "C82U A111G A120C A145U C150A C169U U176G", "reverse-splicing fitness": 0.00404},
      {"variant": "C82U A111G A120G A145G C150G C169G U176G", "reverse-splicing fitness": 0.00529},
      {"variant": "C82U A111G A120G A145G C150G C169G U176C", "reverse-splicing fitness": 0.011},
      {"variant": "C82U A111G A120G A145G C150G C169G U176A", "reverse-splicing fitness": 0.00945},
      {"variant": "C82U A111G A120C A145C C169U", "reverse-splicing fitness": 0.0106},
      {"variant": "C82U A111G A120C A145C C169A", "reverse-splicing fitness": 0.00548},
      {"variant": "C82U A111G A120C A145C C169G", "reverse-splicing fitness": 0.00713},
      {"variant": "C82U A111G A120G A145C C150G U176C", "reverse-splicing fitness": 0.00614},
      {"variant": "C82U A111G A120G A145C C150G U176A", "reverse-splicing fitness": 0.00404},
      {"variant": "C82U A111G A120G A145C C150G U176G", "reverse-splicing fitness": 0.00261},
      {"variant": "C82U A111G A120C A145G U176A", "reverse-splicing fitness": 0.0202},
      {"variant": "C82U A111G A120C A145G U176G", "reverse-splicing fitness": 0.00519},
      {"variant": "C82U A111G A120C A145G U176C", "reverse-splicing fitness": 0.0318},
      {"variant": "C82U A111G A120G A145C C169U U176G", "reverse-splicing fitness": 0.00353},
      {"variant": "C82U A111G A120G A145C C169U U176A", "reverse-splicing fitness": 0.0189},
      {"variant": "C82U A111G A120G A145C C169U U176C", "reverse-splicing fitness": 0.0105},
      {"variant": "C82U A111G A120C C150U C169A U176A", "reverse-splicing fitness": 0.0164},
      {"variant": "C82U A111G A120C C150U C169A U176C", "reverse-splicing fitness": 0.011},
      {"variant": "C82U A111G A120C C150U C169A U176G", "reverse-splicing fitness": 0.00397},
      {"variant": "C82U A111G A120C A145U C150U", "reverse-splicing fitness": 0.0338},
      {"variant": "C82U A111G A120C A145U C150A", "reverse-splicing fitness": 0.0105},
      {"variant": "C82U A111G A120C A145U C150G", "reverse-splicing fitness": 0.00964},
      {"variant": "C82U A111G A120C A145G C150A C169U U176C", "reverse-splicing fitness": 0.014},
      {"variant": "C82U A111G A120C A145G C150A C169U U176A", "reverse-splicing fitness": 0.015},
      {"variant": "C82U A111G A120C A145G C150A C169U U176G", "reverse-splicing fitness": 0.00508},
      {"variant": "C82U A111G A120C A145G C150G C169G U176G", "reverse-splicing fitness": 0.00471},
      {"variant": "C82U A111G A120C A145G C150G C169G U176A", "reverse-splicing fitness": 0.00909},
      {"variant": "C82U A111G A120C A145G C150G C169G U176C", "reverse-splicing fitness": 0.00625},
      {"variant": "C82U A111G A120C A145G C150U U176A", "reverse-splicing fitness": 0.0138},
      {"variant": "C82U A111G A120C A145G C150U U176C", "reverse-splicing fitness": 0.0274},
      {"variant": "C82U A111G A120C A145G C150U U176G", "reverse-splicing fitness": 0.00625},
      {"variant": "C82U A111G A120G A145G C150G C169U U176G", "reverse-splicing fitness": 0.00643},
      {"variant": "C82U A111G A120G A145G C150G C169U U176C", "reverse-splicing fitness": 0.0105},
      {"variant": "C82U A111G A120G A145G C150G C169U U176A", "reverse-splicing fitness": 0.0114}
    ]}
  ]
}
